# Reference: doi:10.1101/2020.05.13.094045
# B1: AtTCP13-RFP (natural protein)
# chain: MNIVSWKDANDEVAGGATTRREREVKEDQEETEVRATSGKTVIKKQPTSISSSSSSWMKSKDPRIVRVSRAFGGKDRHSKVCTLRGLRDRRVRLSVPTAIQLYDLQERLGVDQPSKAVDWLLDAAKEEIDELPPLPISPENFSIFNHHQSFLNLGQRPGQDPTQLGFKINGCVQKSTTTSREENDREKGENDVVYTNNHHVGSYGTYHNLEHHHHHHQHLSLQADYHSHQLHSLVPFPSQILVCPMTTSPTTTTIQSLFPSSSSAGSGTMETLDPRQMVSHFQMPLMGNSSSSSSQNISTLYSLLHGSSSNNGGRDIDNRMSSVQFNRTNSTTTANMSRHLGSERCTSRGSDHHM
# B2: AtTCP4-RFP (natural protein)
# chain: MSDDQFHHPPPPSSMRHRSTSDAADGGCGEIVEVQGGHIVRSTGRKDRHSKVCTAKGPRDRRVRLSAHTAIQFYDVQDRLGFDRPSKAVDWLIKKAKTSIDELAELPPWNPADAIRLAAANAKPRRTTAKTQISPSPPPPQQQQQQQQLQFGVGFNGGGAEHPSNNESSFLPPSMDSDSIADTIKSFFPVIGSSTEAPSNHNLMHNYHHQHPPDLLSRTNSQNQDLRLSLQSFPDGPPSLLHHQHHHHTSASASEPTLFYGQSNPLGFDTSSWEQQSSEFGRIQRLVAWNSGGGGGATDTGNGGGFLFAPPTPSTTSFQPVLGQSQQLYSQRGPLQSSYSPMIRAWFDPHHHHQSISTDDLNHHHHLPPPVHQSAIPGIGFASGEFSSGFRIPARFQGQEEEQHDGLTHKPSSASSISRH
# Legend:
# [1] = biological target: AP_SAP11-like_PM19-GFP ('Candidatus Phytoplasma mali' strain PM19); test: FRET or BRET
# [2] = biological target: AP_SAP11-like_PM19^Δ40-56-GFP ('Candidatus Phytoplasma mali' strain PM19); test: FRET or BRET
Binder,FRET efficiency [1] [%],FRET efficiency [2] [%]
B1,9,8
B2,11,–
